T1: GII.3 VLP (norovirus Hu/GII.3/NIHIC8.1/2011/USA)
T1 construct: also called Hu/GII.3/NIHIC8.1/2011/USA
T1 chain: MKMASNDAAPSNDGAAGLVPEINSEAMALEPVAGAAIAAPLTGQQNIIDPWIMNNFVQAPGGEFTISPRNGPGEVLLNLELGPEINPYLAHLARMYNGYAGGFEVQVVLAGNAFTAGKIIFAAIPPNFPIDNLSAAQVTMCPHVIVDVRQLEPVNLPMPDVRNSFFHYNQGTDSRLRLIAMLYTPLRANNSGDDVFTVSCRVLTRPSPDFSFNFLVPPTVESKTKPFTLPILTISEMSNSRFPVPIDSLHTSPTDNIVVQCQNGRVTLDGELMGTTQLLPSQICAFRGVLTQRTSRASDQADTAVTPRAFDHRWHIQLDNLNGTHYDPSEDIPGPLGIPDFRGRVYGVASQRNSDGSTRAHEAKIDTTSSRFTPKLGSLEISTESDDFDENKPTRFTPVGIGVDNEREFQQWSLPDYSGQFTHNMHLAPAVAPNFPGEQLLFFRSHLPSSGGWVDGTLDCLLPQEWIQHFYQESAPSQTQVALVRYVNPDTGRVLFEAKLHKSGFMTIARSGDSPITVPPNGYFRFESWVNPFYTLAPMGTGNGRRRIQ

T2: GII.4/Consensus VLP (norovirus GII.4 consensus sequence, UniProt P54635 1-539)
T2 chain: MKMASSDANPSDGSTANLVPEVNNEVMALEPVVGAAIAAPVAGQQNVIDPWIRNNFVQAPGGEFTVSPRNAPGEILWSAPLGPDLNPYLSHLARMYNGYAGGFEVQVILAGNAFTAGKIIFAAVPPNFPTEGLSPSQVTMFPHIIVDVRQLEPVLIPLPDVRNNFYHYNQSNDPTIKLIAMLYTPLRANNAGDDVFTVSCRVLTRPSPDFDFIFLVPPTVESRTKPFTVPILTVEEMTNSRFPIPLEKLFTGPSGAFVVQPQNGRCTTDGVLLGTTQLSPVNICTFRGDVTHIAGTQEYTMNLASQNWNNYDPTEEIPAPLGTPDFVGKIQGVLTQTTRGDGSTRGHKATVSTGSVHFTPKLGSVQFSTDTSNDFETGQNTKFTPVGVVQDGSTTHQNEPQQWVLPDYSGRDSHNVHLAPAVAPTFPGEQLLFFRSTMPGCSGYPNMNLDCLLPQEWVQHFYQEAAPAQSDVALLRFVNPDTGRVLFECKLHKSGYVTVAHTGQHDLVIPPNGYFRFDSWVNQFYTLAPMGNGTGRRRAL

T3: GII.17/2015 VLP (norovirus Hu/GII.17/HKG/2015/CUHK-NS-513)
T3 construct: also called Hu/GII.17/HKG/2015/CUHK-NS-513
T3 chain: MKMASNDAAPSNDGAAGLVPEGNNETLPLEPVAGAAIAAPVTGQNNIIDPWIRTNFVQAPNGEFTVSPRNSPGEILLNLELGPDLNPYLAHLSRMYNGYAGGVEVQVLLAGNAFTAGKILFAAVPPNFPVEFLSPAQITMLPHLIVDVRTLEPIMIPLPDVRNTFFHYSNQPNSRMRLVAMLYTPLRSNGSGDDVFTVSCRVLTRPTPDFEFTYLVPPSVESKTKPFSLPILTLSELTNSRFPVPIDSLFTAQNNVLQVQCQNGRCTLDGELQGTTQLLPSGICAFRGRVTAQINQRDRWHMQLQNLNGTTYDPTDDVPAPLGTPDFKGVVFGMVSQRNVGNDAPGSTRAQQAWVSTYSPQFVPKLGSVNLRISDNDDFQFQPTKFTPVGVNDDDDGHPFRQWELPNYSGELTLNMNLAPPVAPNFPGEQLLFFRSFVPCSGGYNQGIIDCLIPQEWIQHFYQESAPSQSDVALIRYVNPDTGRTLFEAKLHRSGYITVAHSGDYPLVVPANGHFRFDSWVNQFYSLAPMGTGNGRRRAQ

T4: GI.4 VLP (norovirus Hu/GI.4/1643/2008/US)
T4 construct: also called GI.4 US
T4 chain: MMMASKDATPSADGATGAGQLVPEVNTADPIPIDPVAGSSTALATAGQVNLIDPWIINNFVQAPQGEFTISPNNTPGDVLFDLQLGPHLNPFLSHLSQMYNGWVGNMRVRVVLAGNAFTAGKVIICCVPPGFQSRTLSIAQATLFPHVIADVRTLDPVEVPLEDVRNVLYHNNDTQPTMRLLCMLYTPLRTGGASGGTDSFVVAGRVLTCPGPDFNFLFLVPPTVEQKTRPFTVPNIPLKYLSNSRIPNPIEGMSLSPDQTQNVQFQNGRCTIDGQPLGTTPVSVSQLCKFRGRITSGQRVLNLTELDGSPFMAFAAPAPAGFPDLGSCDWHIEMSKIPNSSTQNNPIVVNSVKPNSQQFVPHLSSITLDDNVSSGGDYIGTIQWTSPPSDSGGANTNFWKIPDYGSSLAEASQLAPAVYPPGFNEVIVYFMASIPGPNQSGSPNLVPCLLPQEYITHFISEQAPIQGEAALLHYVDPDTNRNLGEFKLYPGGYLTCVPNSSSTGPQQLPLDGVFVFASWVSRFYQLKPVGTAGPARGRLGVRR

T5: GI.5 VLP (norovirus …)
T5 construct: also called GI.5 Siklos
T5 chain: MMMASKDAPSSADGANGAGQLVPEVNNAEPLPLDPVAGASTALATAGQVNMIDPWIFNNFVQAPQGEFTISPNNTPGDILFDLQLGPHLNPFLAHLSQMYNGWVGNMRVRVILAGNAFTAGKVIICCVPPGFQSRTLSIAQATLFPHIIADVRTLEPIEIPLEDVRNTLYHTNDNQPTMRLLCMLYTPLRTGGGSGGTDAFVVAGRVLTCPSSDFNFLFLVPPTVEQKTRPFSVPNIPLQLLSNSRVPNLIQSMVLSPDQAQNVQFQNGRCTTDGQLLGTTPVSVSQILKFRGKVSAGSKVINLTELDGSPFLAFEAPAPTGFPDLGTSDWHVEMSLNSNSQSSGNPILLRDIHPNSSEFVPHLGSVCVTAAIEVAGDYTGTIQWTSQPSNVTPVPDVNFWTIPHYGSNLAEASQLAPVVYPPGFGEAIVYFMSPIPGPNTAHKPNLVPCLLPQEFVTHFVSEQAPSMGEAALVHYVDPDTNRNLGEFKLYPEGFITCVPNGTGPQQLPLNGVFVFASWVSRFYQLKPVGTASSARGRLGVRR


What was measured:
Experiment in all cases: multiplex microsphere immunoassay
[1] = target: T1, GII.3 VLP
[2] = target: T2, GII.4/Consensus VLP
[3] = target: T3, GII.17/2015 VLP
[4] = target: T4, GI.4 VLP
[5] = target: T5, GI.5 VLP

Row | Binder | binding result [1] | EC50 [2] | binding result [3] | EC50 [1] | EC50 [3] | binding result [4] | binding result [5]
1 | human mAb 1431 (antibody, V domains shown, also called A1431) VH: QVQLVQSGGGLVQPGGSLRLSCAASGFAFSNHGMHWVRQAPGKGLEWLSYISGSTGAIHYANSVKGRFTISRDNARNSLDLQMNSLGDEDTAVYYCARDGPRPDGTGYAGPSNDYWGQGTLVSVSS VL: EIVLTQSPASLSLSPGERATLSCKASRSISIYLAWYQQKPGQAPRLLIYDASYRAIGIPARFSGSGSGTDFTLTISNLEPEDFAVYYCQHRSSWPALTFGGGTKVEI [human mAb 1431, listing 1 of 2 here] | no binding | 0.07 mg/L | no binding | – | – | – | –
2 | human mAb 1227 (antibody, V domains shown, also called A1227) VH: QVQLVQSGGGMVQPGGSLSLSCAASGFTLSNYAMTWVRQAPGKGLEWVSSIGGSGGTTYYADSVKGRFTISRDSSMNTLYLQMSNLRAGDTAVYYCAKDKTRTLRLGYSGMDVWGQGTTVTVSS VL: DIRLTQSPSSLSASVGDRVTITCRASQSISSYLNWYQQKPGKAPDLLIYGASSLQSGVPSRFSGSGSGTDFTLTISSLQPEDFGNYYCQQSFSTPRTFGQGTKVEL | – | 0.216 mg/L | – | 0.006 mg/L | 0.012 mg/L | – | –
3 | human mAb 1431 (antibody, V domains shown, also called A1431) VH: QVQLVQSGGGLVQPGGSLRLSCAASGFAFSNHGMHWVRQAPGKGLEWLSYISGSTGAIHYANSVKGRFTISRDNARNSLDLQMNSLGDEDTAVYYCARDGPRPDGTGYAGPSNDYWGQGTLVSVSS VL: EIVLTQSPASLSLSPGERATLSCKASRSISIYLAWYQQKPGQAPRLLIYDASYRAIGIPARFSGSGSGTDFTLTISNLEPEDFAVYYCQHRSSWPALTFGGGTKVEI [human mAb 1431, listing 2 of 2 here] | – | – | – | – | – | no binding | no binding

— patent US20240402174A1 (Takeda / Millennium, published 2024)
